Assay results as given in paper PMC3447989.

Biological target: Treponema denticola superoxide reductase (Treponema denticola (strain ATCC 35405))
Experiment: SEC

- stoichiometry N: 2
Substance: Treponema denticola superoxide reductase (enzyme)
